Measurements taken from publication PMC7447803, “DEPS-1 is required for piRNA-dependent silencing and PIWI condensate organisation in Caenorhabditis elegans” (Nature Communications, 2020).

B1: MBP-tagged full-length DEPS-1 (natural protein, C. elegans, UniProt Q9N303 1-619, looked up)
chain: MSERQSKYFDYQGIVISSTGQDNQDSETDLVYLIQAHGKAAPKNIMYGVSKCAFVPTNLERNFDNIEEAKNLERRSKIPLKFGEVILWNESDCDHDKRIILHIKREKPIYEASSSRNGLILKVGGVIQPTSTTSFWTPLCTVTMPETEATRAEPDVWLYAWIRFETTMKSGLDPFNMTATFESFDSCDPSDQARVCEAPWNAGSPDSKFGVWRPDPKPADSDDEIDIEPREGWHLPEDKWAEVIKMQLGLYVGERLLICKELSQFDFIIPLQKPFSRGTDKTLIYPAVGEYFHFSAIWSMQHNGFLIYELQPVPLLRQHVTSVNGNLLTRVVPASIRGLFVDKEGTLGLIDDPHHLLSFFEFHPAGYEFLKAMAEVRAVRTSENKSVRYRIVRTSGMSIFENWLRDTQFVVGPVKGIRINEDTVICAKHPNVYFKIPNNLKEGIPIGGGVQFVGKRQAGVDSEIMITECSPCPAFTCKNYSVSGDTRLFQVYLKPNCDHEQLAESDSMGFVDFRELETPCRGKFLAWVRESITVNDCRRAATIMEVCSTAICPPLIAMSANSSRATSARTTPAGSSIGSRSSIQSRASAATSVSSNRFVGPSSRRTPSGTPQSSTSSRV
modifications: atto-488 NHS ester label
notes: DEPS-1 (Defective P granules and Sterile-1), C. elegans P granule protein, full length; Cloned into pMAL-C5X; Labelled partner (10 nM) in the MST with MBP-PRG-1; also called MBP-DEPS-1; Defective P granules and Sterile-1; source: E. coli BL21 (DE3), purified (RNaseA-treated lysate, amylose resin, size-exclusion chromatography)

Assays:
Experiment in all cases: MST; one partner labelled with atto-488 NHS ester at a constant amount, unlabelled partner serially diluted 1:2; 30 mM HEPES pH 7.5, 100 mM K-Ac, 2 mM Mg-Ac, 14 mM BME, 0.01% NP-40; apparent Kd by the law of mass action
[1] = biological target: N-terminal fragment of DEPS-1 (DEPS-1^frag1) (C. elegans) (UniProt Q9N303)
[2] = biological target: DEPS-1 PBS motif peptide (C. elegans)
[3] = biological target: MBP-tagged full-length DEPS-1 (C. elegans) (UniProt Q9N303)
[4] = biological target: T1, MBP-tagged full-length PRG-1 (C. elegans, UniProt P90786 1-824, Atto-594 label (in the cluster imaging only)); conditions: both partners purified
T1 construct: PRG-1, the PIWI protein of C. elegans, full length; Cloned into pMAL-C5X; Unlabelled in the MST titration; also called MBP-PRG-1; MBP-PRG; source: E. coli BL21 (DE3), purified (RNaseA-treated lysate, amylose resin, size-exclusion chromatography)
T1 sequence (looked up): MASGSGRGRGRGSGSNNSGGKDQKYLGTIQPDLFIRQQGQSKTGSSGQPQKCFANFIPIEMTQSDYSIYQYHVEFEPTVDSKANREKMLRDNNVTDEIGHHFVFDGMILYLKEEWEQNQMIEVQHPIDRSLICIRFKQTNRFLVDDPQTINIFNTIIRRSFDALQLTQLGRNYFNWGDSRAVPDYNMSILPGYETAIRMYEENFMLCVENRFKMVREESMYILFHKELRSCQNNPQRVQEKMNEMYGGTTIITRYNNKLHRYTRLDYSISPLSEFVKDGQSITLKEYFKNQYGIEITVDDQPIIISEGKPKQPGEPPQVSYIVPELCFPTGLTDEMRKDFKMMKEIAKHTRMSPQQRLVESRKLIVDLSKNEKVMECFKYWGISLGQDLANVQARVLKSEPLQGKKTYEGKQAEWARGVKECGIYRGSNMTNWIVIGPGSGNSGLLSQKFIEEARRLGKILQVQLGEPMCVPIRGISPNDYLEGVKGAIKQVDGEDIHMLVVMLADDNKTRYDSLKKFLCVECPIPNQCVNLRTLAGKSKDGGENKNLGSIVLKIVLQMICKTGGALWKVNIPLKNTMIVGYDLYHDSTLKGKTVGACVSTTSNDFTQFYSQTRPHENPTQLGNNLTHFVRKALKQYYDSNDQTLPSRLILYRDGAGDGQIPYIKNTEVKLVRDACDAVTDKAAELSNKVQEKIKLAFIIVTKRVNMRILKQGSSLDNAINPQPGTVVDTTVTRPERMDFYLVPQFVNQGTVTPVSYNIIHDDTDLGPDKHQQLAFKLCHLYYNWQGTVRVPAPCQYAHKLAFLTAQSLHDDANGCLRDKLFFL

| Molecule | Kd [1] [nM] | Kd [2] [nM] | Kd [3] [nM] | Kd [4] [nM] |
| --- | --- | --- | --- | --- |
| MBP-tagged PRG-1 PIWI domain (from UniProt P90786 1-824) (domain or fragment) | 151 | 1900 | 349 |  |
| B1 |  |  |  | 855 ± 133 |
